We go through one molecule from article doi:10.1101/2024.04.27.591446 (bioRxiv, 2024).

One test deals with SARS-CoV-2 RBD WU1 (SARS-CoV-2 Wuhan-Hu-1, UniProt P0DTC2). In words: SPR.
A further test concerns the target SARS-CoV1 Spike (SARS-CoV, strain  (P59594 …, UniProt P59594)). In words: ELISA.

B1: 1301B7 recombinant human monoclonal antibody (hmAb), IgG1 (antibody, V domains shown)
VH: EVQLVESGAEVKNPGSSVKVSCKASEGTFGSYPIIWVRQAPGQGLEWVGGIIPILGTVIYAQKFQGRVTITGDTYAGSAHMELSGLRSEDTAVFYCARGSYDYGDRLLNYTYYAMDVWGPGTTVTVSS
VL: QPGLTQPPSVSGAPGQRVTISCTGSRSNIGAVYAVHWYQHVPGAAPKLLIYENNNRPSGIPDRFSGSKSGTSASLVITGLQAEDEADYLCQSYDRSVGVVFGGGTRLTVL
B1: the binding result in the test with SARS-CoV-2 RBD WU1 and with SARS-CoV1 Spike was “binds” in each case.
